This note sets out measurements from US20230158165.

Data set [1] relates to PEG12 construct peptide (Peg12-Val-Cit-Tregitope-Nle), before addition of MPA and HSA.
The test system of data set [2] is PEG2 construct peptide (KKKK-Peg2-Val-Cit-Tregitope-Nle), before addition of MPA and HSA.

“Recombinant human Cathepsin B (catalog 953-CY of R&D Systems)”: the “cleavage of the Val-Cit site, evaluated by mass spec” value is “For the PEG12 product, successful cleavage is demonstrated” in data set [1]; “the PEG2 peptide did not have successful cleavage, and further modification of the Cathepsin B protocol did not produce successful cleavage” in data set [2].
